Measurements from paper PMC4457826, “Crystal Structure of USP7 Ubiquitin-like Domains with an ICP0 Peptide Reveals a Novel Mechanism Used by Viral and Cellular Proteins to Target USP7” (PLoS Pathogens, 2015).
Primed or numbered codes have the meaning given here. No end group written: not given here. FITC′ = fluorescein isothiocyanate label; GST = glutathione S-transferase fusion

Experiments:
USP7-CTD (535-1102) [1] = molecular target: T1, USP7-CTD (535-1102) (human, UniProt Q93009 535-1102); experiment: fluorescence polarisation; USP7 proteins titrated (0 to 200 μM) into 40 nM N-terminally FITC-labeled peptide; 0.01% Triton X-100, 150 mM NaCl, 20 mM Tris pH 7.5; conditions: both partners purified
T1 construct: USP7, human, residues 535-1102 (spacer helix and five Ubl domains); Cloned in p15TV-L; also called WT USP7-CTD; C-terminal domain; source: E. coli BL21(DE3)mgk, purified (nickel-NTA, SEC)

USP7-CTD (535-1102) [2] = molecular target: T1, USP7-CTD (535-1102); experiment: pull-down; GST pull-down: 250 μg USP7 protein with 250 μg GST fusion in 50 mM Tris pH 8.0, 100 mM NaCl, 5 mM DTT, 5% glycerol, on glutathione-sepharose overnight at 4°C; eluted with 30 mM reduced glutathione; Coomassie stained gel; conditions: both partners purified
full length USP7 [3] = molecular target: T2, full length USP7 (human, UniProt Q93009 1-1102); experiment: as above; conditions: both partners purified
T2 construct: Ubiquitin specific protease 7 (USP7, HAUSP), human, full length; also called FL-USP7; USP7-FL; source: Sf9 cells, purified (SEC)

[4] = molecular target: T3, myc-tagged USP7 D762R/D764R (human, UniProt Q93009 1-1102, D762R/D764R | D762R/D764R); experiment: co-IP; 293T cells transfected with myc-USP7 (with or without ICP0); RIPA lysate, anti-myc antibody and protein A/G agarose; Western blot for ICP0, GMPS or UHRF1; conditions: partners not purified
T3 construct: USP7, human, full length with D762R and D764R, sub-cloned into pCANmycUSP7; also called MRGR; D762R/D764R (MRGR) USP7; source: 293T cells, transfected (pCANmycUSP7), in lysate

USP7-CTD (535-1102) [5] = molecular target: T1, USP7-CTD (535-1102); experiment: fluorescence polarisation; competition: fixed USP7-CTD (8 μM), 40 nM FITC-UHRF1, increasing unlabeled ICP0 peptide (0 to 2500 μM); conditions: both partners purified
USP7 Ubl123 (535-889) [6] = molecular target: T4, USP7 Ubl123 (535-889) (human, UniProt Q93009 535-889); experiment: pull-down; GST pull-down: 250 μg USP7 protein with 250 μg GST fusion in 50 mM Tris pH 8.0, 100 mM NaCl, 5 mM DTT, 5% glycerol, on glutathione-sepharose overnight at 4°C; eluted with 30 mM reduced glutathione; Coomassie stained gel; conditions: both partners purified
T4 construct: USP7, human, residues 535-889 (spacer helix 535-560 and Ubl1-3); Cloned in p15TV-L; also called native Ubl123; source: E. coli BL21(DE3)mgk, purified (nickel-NTA, SEC)

USP7 Ubl12 (535-776) = molecular target: T5, USP7 Ubl12 (535-776) (human, UniProt Q93009 535-776); experiment: as above; conditions: both partners purified
T5 construct: USP7, human, residues 535-776; Cloned in p15TV-L; source: E. coli BL21(DE3)mgk, purified (nickel-NTA, SEC)

USP7 Ubl123 (535-889) [7] = molecular target: T4, USP7 Ubl123 (535-889); experiment: fluorescence polarisation; USP7 proteins titrated (0 to 200 μM) into 40 nM N-terminally FITC-labeled peptide; 0.01% Triton X-100, 150 mM NaCl, 20 mM Tris pH 7.5; conditions: both partners purified
full length USP7 [8] = molecular target: T2, full length USP7; experiment: as above; conditions: both partners purified
USP7 Ubl123 D762A/D764A = molecular target: T6, USP7 Ubl123 D762A/D764A (human, UniProt Q93009 535-889, D762A/D764A | D762A/D764A); experiment: as above; conditions: both partners purified
T6 construct: USP7, human, residues 535-889 with D762A and D764A; Synthesized (Genscript), in pET15b; also called Ubl123 mutant D762A/D764A; source: E. coli BL21(DE3)mgk, purified (nickel-NTA, SEC)

USP7 Ubl123 D764A = molecular target: T7, USP7 Ubl123 D764A (human, UniProt Q93009 535-889, D764A); experiment: as above; conditions: both partners purified
T7 construct: USP7, human, residues 535-889 with D764A; Synthesized (Genscript), in pET15b; also called Ubl123 mutant D764A; source: E. coli BL21(DE3)mgk, purified (nickel-NTA, SEC)

USP7 Ubl123 E759A = molecular target: T8, USP7 Ubl123 E759A (human, UniProt Q93009 535-889, E759A); experiment: as above; conditions: both partners purified
T8 construct: USP7, human, residues 535-889 with E759A; Synthesized (Genscript), in pET15b; also called Ubl123 mutant E759A; source: E. coli BL21(DE3)mgk, purified (nickel-NTA, SEC)

USP7 Ubl123 D762A = molecular target: T9, USP7 Ubl123 D762A (human, UniProt Q93009 535-889, D762A); experiment: as above; conditions: both partners purified
T9 construct: USP7, human, residues 535-889 with D762A; Synthesized (Genscript), in pET15b; also called Ubl123 mutant D762A; source: E. coli BL21(DE3)mgk, purified (nickel-NTA, SEC)
T9 sequence (Q93009 535-889 D762A): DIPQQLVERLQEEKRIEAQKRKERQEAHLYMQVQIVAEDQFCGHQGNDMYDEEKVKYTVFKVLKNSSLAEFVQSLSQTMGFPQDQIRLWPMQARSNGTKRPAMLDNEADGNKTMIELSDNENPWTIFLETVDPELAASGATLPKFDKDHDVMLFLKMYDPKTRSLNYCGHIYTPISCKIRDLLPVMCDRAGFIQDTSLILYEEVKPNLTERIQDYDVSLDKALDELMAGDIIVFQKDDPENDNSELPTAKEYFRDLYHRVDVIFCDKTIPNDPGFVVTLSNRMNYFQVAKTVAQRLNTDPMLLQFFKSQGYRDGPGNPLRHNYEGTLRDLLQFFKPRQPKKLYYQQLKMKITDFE

T1 sequence (Q93009 535-1102): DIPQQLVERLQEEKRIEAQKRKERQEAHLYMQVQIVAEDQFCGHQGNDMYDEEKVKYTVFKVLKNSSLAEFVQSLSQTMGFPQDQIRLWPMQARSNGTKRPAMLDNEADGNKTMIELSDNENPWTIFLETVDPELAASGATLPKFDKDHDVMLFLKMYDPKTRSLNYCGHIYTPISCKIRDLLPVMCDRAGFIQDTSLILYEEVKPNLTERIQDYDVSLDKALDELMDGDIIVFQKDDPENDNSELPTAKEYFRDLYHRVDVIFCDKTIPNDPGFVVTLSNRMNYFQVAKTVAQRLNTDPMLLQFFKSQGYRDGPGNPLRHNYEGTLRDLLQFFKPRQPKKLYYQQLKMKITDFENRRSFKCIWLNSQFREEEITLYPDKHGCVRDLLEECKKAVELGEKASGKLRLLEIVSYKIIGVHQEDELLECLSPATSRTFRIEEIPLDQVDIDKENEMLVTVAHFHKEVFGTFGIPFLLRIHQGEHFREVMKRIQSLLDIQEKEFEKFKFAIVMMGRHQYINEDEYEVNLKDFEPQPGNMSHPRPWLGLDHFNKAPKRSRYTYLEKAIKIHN
T2 sequence (Q93009 whole entry): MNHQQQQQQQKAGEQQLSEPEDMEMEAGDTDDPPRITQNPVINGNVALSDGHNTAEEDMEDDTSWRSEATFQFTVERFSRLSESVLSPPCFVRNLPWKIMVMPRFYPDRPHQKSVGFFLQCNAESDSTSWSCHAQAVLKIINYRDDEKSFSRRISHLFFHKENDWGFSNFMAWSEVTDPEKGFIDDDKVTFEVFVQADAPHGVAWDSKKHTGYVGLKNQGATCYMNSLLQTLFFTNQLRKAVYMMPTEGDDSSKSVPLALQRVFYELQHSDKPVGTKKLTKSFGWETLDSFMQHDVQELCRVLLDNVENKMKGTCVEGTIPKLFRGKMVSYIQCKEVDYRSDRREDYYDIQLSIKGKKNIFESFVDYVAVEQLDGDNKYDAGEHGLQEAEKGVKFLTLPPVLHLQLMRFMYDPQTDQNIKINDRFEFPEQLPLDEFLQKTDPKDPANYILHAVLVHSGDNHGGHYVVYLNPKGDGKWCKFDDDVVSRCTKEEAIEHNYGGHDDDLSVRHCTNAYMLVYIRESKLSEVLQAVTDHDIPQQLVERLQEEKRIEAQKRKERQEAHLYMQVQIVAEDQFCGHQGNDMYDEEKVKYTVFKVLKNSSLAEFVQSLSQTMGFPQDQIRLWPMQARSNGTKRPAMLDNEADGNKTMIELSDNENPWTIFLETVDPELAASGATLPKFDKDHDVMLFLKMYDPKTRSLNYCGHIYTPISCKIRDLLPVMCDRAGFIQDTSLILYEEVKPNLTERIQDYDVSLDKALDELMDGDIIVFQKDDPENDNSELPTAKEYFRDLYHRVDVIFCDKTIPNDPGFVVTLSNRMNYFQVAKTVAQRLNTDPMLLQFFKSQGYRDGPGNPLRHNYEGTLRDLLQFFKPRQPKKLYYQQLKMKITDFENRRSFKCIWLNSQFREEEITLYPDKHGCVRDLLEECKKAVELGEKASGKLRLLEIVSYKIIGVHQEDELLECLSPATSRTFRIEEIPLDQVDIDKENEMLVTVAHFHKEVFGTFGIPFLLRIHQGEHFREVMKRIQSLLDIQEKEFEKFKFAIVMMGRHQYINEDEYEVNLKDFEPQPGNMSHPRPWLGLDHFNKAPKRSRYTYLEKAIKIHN
T3 sequence (Q93009 whole entry D762R/D764R): as the sequence (Q93009 whole entry) above, with D762R, D764R counted along it
T4 sequence (Q93009 535-889): as the sequence (Q93009 535-889 D762A) above, with A228D counted along it
T5 sequence (Q93009 535-776): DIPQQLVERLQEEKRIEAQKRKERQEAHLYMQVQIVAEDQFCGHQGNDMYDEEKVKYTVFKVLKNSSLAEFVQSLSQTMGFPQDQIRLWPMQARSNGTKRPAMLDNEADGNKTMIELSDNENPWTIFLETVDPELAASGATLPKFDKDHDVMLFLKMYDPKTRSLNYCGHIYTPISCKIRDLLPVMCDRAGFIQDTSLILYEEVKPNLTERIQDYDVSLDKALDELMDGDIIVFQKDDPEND
T6 sequence (Q93009 535-889 D762A/D764A): as the sequence (Q93009 535-889 D762A) above, with D230A counted along it
T7 sequence (Q93009 535-889 D764A): as the sequence (Q93009 535-889 D762A) above, with A228D, D230A counted along it
T8 sequence (Q93009 535-889 E759A): as the sequence (Q93009 535-889 D762A) above, with E225A, A228D counted along it

B1: FITC-GMPS peptide (peptide)
peptide: {FITC′}-DRTPRKRISKTLN
notes: GMP synthase (GMPS), residues 316-328 ('this GMPS peptide'); also called N-terminal FITC containing GMPS peptide; source: synthetic peptide (CanPeptide)
B1 was tested, and the Kd (USP7-CTD (535-1102) [1]) was 32 µM.

B2: FITC-UHRF1 peptide (peptide)
chain: {FITC′}-TGKGKWKR
B2 gave a Kd (USP7-CTD (535-1102) [1]) of 5.6 µM.

B3: GST-ICP0 594-775 (domain or fragment)
chain: AVGALGGRQEETSLGPRAASGPRGPRKCARKTRHAETSGAVPAGGLTRYLPISGVSSVVALSPYVNKTITGDCLPILDMETGNIGAYVVLVDQTGNMATRLRAAVPGWSRRTLLPETAGNHVMPPEYPTAPASEWNSLWMTPVGNMLFDQGTLVGALDFRSLRSRHPWSGEQGASTRDEGKQ
notes: ICP0 of herpes simplex virus 1, residues 594-775; also called longer ICP0 peptide; source: E. coli BL21(DE3), purified (glutathione-sepharose)
B3: binds (USP7-CTD (535-1102) [2]).

B4: GST-GMPS peptide (316-328) (peptide)
chain: {GST}-DRTPRKRISKTLN
notes: GMP synthase (GMPS), residues 316-328; also called WT GST-GMPS; source: E. coli BL21(DE3), purified (glutathione-sepharose)
B4: binds (USP7-CTD (535-1102) [2]).

B5: GST-ICP0 611-625 (peptide)
chain: AASGPRGPRKCARKT
notes: ICP0 of herpes simplex virus 1, residues 611-625; also called ICP0 region 611–625; source: E. coli BL21(DE3), purified (glutathione-sepharose)
B5: binds (full length USP7 [3]); binds (USP7-CTD (535-1102) [2]).

B6: endogenous GMPS (natural protein)
chain: not shown
notes: GMP synthase (GMPS), endogenous in 293T cells; also called GMP synthase; source: endogenous, 293T lysate
With B6 the “percent binding relative to recovery with WT USP7” value [4] was 35%.

B7: endogenous UHRF1 (natural protein, human (endogenous in 293T), UniProt Q96T88 1-793, looked up)
chain: MWIQVRTMDGRQTHTVDSLSRLTKVEELRRKIQELFHVEPGLQRLFYRGKQMEDGHTLFDYEVRLNDTIQLLVRQSLVLPHSTKERDSELSDTDSGCCLGQSESDKSSTHGEAAAETDSRPADEDMWDETELGLYKVNEYVDARDTNMGAWFEAQVVRVTRKAPSRDEPCSSTSRPALEEDVIYHVKYDDYPENGVVQMNSRDVRARARTIIKWQDLEVGQVVMLNYNPDNPKERGFWYDAEISRKRETRTARELYANVVLGDDSLNDCRIIFVDEVFKIERPGEGSPMVDNPMRRKSGPSCKHCKDDVNRLCRVCACHLCGGRQDPDKQLMCDECDMAFHIYCLDPPLSSVPSEDEWYCPECRNDASEVVLAGERLRESKKKAKMASATSSSQRDWGKGMACVGRTKECTIVPSNHYGPIPGIPVGTMWRFRVQVSESGVHRPHVAGIHGRSNDGAYSLVLAGGYEDDVDHGNFFTYTGSGGRDLSGNKRTAEQSCDQKLTNTNRALALNCFAPINDQEGAEAKDWRSGKPVRVVRNVKGGKNSKYAPAEGNRYDGIYKVVKYWPEKGKSGFLVWRYLLRRDDDEPGPWTKEGKDRIKKLGLTMQYPEGYLEALANREREKENSKREEEEQQEGGFASPRTGKGKWKRKSAGGGPSRAGSPRRTSKKTKVEPYSLTAQQSSLIREDKSNAKLWNEVLASLKDRPASGSPFQLFLSKVEETFQCICCQELVFRPITTVCQHNVCKDCLDRSFRAQVFSCPACRYDLGRSYAMQVNQPLQTVLNQLFPGYGNGR
notes: UHRF1 (NP95), endogenous in 293T cells; also called NP95; source: endogenous, 293T lysate
For B7, the “percent binding relative to recovery with WT USP7” value [4] was 21%.

B8: unlabeled ICP0 peptide (peptide)
chain: GPRKCARKTRH
modifications: not fully specified
Binder B8 has a Ki (USP7-CTD (535-1102) [5]) of 20.6 µM.

B9: ICP0 (expressed in 293T cells) (natural protein)
chain: MEPRPGASTRRPEGRPQREPAPDVWVFPCDRDLPDSSDSEAETEVGGRGDADHHDDDSASEADSTDTELFETGLLGPQGVDGGAVSGGSPPREEDPGSCGGAPPREDGGSDEGDVCAVCTDEIAPHLRCDTFPCMHRFCIPCMKTWMQLRNTCPLCNAKLVYLIVGVTPSGSFSTIPIVNDPQTRMEAEEAVRAGTAVDFIWTGNQRFAPRYLTLGGHTVRALSPTHPEPTTDEDDDDLDDADYVPPAPRRTPRAPPRRGAAAPPVTGGASHAAPQPAAARTAPPSAPIGPHGSSNTNTTTNSSGGGGSRQSRAAAPRGASGPSGGVGVGVGVVEAEAGRPRGRTGPLVNRPAPLANNRDPIVISDSPPASPHRPPAAPMPGSAPRPGPPASAAASGPARPRAAVAPCVRAPPPGPGPRAPAPGAEPAARPADARRVPQSHSSLAQAANQEQSLCRARATVARGSGGPGVEGGHGPSRGAAPSGAAPLPSAASVEQEAAVRPRKRRGSGQENPSPQSTRPPLAPAGAKRAATHPPSDSGPGGRGQGGPGTPLTSSAASASSSSASSSSAPTPAGAASSAAGAASSSASASSGGAVGALGGRQEETSLGPRAASGPRGPRKCARKTRHAETSGAVPAGGLTRYLPISGVSSVVALSPYVNKTITGDCLPILDMETGNIGAYVVLVDQTGNMATRLRAAVPGWSRRTLLPETAGNHVMPPEYPTAPASEWNSLWMTPVGNMLFDQGTLVGALDFRSLRSRHPWSGEQGASTRDEGKQ
notes: also called pCI-110 ICP0; source: 293T cells, transfected (pCI-110 ICP0), in lysate
B9 was tested, and the “fold decrease of recovery against WT USP7” value [4] was 2 fold.

B10: GST-ICP0 615-629 (peptide)
chain: PRGPRKCARKTRHAE
notes: ICP0 of herpes simplex virus 1, residues 615-629; also called ICP0 peptide 615–629; GST-ICP0 peptide; source: E. coli BL21(DE3), purified (glutathione-sepharose)
B10: binds (USP7 Ubl123 (535-889) [6]); binds (USP7 Ubl12 (535-776)); binds (full length USP7 [3]). B10: binds (USP7-CTD (535-1102) [2]).

B11: FITC-labeled ICP0 peptide (peptide)
chain: {FITC′}-GPRKCARKTRH
B11 gave a Kd (USP7 Ubl123 (535-889) [7]) of 1600 nM, a Kd (full length USP7 [8]) of 3.2 µM and a Kd (USP7 Ubl123 D762A/D764A) of over 100 µM. It also gave a Kd (USP7 Ubl123 D764A) of over 100 µM, a Kd (USP7 Ubl123 E759A) of over 100 µM and a Kd (USP7 Ubl123 D762A) of over 100 µM.

B12: GST-ICP0 619-633 (peptide)
chain: RKCARKTRHAETSGA
notes: ICP0 of herpes simplex virus 1, residues 619-633; also called ICP0 peptide 619–633; source: E. coli BL21(DE3), purified (glutathione-sepharose)
B12: binds (full length USP7 [3]); binds (USP7-CTD (535-1102) [2]).
